Experimental data taken from FireProtDB (doi:10.1016/0022-2836(92)90557-z).

B1: Ribonuclease, P00648 (parent)
chain: MMKMEGIALKKRLSWISVCLLVLVSAAGMLFSTAAKTETSSHKAHTEAQVINTFDGVADYLQTYHKLPDNYITKSEAQALGWVASKGNLADVAPGKSIGGDIFSNREGKLPGKSGRTWREADINYTSGFRNSDRILYSSDWLIYKTTDHYQTFTKIR

Variants of: B1
Settings: Bacillus amyloliquefaciens; pH 6.3; 25 °C; Urea; Fluorescence; MES 1.00 M; NaCl 613 mM; reversible: yes; structure 1BNI; whole UniProt chain shown

| Variant | ddG of mutation (higher = less stable) | denaturant midpoint (higher = more stable) |
| --- | --- | --- |
| MMKMEGIALKKRLSWISVCLLVLVSAAGMLFSTAAKTETSSHKAHTEAQVINTFAGVAAYLQTYHKLPDNYITKSEAQALGWVASKGNLADVAPGKSIGGDIFSNREGKLPGKSGRTWREADINYTSGFRNSDRILYSSDWLIYKTTDHYQTFTKIR [D55A D59A] | 0.89 kcal/mol | 4.16 M |
| MMKMEGIALKKRLSWISVCLLVLVSAAGMLFSTAAKTETSSHKAHTEAQVINTFAGVAAYLQTYHKLPDNYITKSEAQALGWVASKGNLADVAPGKSIGGDIFSNREGKLPGKSGRTWREADINYTSGFRNSDRILYSSDWLIYKTTDHYQTFTKIA [D55A D59A R157A] | -0.11 kcal/mol | 4.63 M |
| MMKMEGIALKKRLSWISVCLLVLVSAAGMLFSTAAKTETSSHKAHTEAQVINTFAGVADYLQTYHKLPDNYITKSEAQALGWVASKGNLADVAPGKSIGGDIFSNREGKLPGKSGRTWREADINYTSGFRNSDRILYSSDWLIYKTTDHYQTFTKIR [D55A] | 0.99 kcal/mol | 4.12 M |
| MMKMEGIALKKRLSWISVCLLVLVSAAGMLFSTAAKTETSSHKAHTEAQVINTFAGVADYLQTYHKLPDNYITKSEAQALGWVASKGNLADVAPGKSIGGDIFSNREGKLPGKSGRTWREADINYTSGFRNSDRILYSSDWLIYKTTDHYQTFTKIA [D55A R157A] | 0.47 kcal/mol | 4.36 M |
| MMKMEGIALKKRLSWISVCLLVLVSAAGMLFSTAAKTETSSHKAHTEAQVINTFDGVADYLQTYHKLPDNYITKSEAQALGWVASKGNLADVAPGKSIGGDIFSNREGKLPGKSGRTWREADINYTSGFRNSDRILYSSDWLIYKTTDHYQTFTKIA [R157A] | 0.46 kcal/mol | 4.37 M |
| MMKMEGIALKKRLSWISVCLLVLVSAAGMLFSTAAKTETSSHKAHTEAQVINTFDGVAAYLQTYHKLPDNYITKSEAQALGWVASKGNLADVAPGKSIGGDIFSNREGKLPGKSGRTWREADINYTSGFRNSDRILYSSDWLIYKTTDHYQTFTKIR [D59A] | 0.34 kcal/mol | 4.42 M |
